Square brackets hold non-standard residues; d marks the D form. Ends that are not written are not given here. * marks the point of attachment. Biotin = O=C1N[C@H]2[C@H](CS[C@H]2CCCCC(=O)*)N1; Ahx = NCCCCCC(=O)O
Key:
[1] = target: T1, GST-YxxQ (307-545), recombinant CoAA YxxQ repeats (human, UniProt Q96PK6 307-545); test: ELISA; GST-YxxQ or GST-AxxQ (307-545) coated at 500 ng/well on 96-well plate with BSA; biotin-labeled diheptad peptides at 6.4-20000 ng/ml overnight; streptavidin-HRP, luminescence; EC50 by sigmoidal non-linear curve fit; details: both partners purified
T1 construct: CoAA (RBM14) YxxQ repeats, residues 307-545; also called YxxQ repeats (307-545); recombinant GST fusion CoAA YxxQ repeats; source: recombinant GST fusion protein
T1 sequence (looked up): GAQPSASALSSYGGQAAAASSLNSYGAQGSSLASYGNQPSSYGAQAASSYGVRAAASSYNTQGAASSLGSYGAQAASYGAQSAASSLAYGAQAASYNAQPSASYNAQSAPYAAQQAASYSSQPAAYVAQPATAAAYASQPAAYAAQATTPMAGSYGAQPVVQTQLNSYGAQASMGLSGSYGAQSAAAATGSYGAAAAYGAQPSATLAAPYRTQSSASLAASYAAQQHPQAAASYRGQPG

[2] = target: T2, GST-YxxQ (307-545), recombinant CoAA YxxQ repeats (human, UniProt Q96PK6 307-545); test: ELISA; competition with biotin-labeled pSer5 CTD peptide
T2 chain: T1 sequence (looked up)

[3] = target: T1, GST-YxxQ (307-545), recombinant CoAA …; test: ELISA; competition: GST-YxxQ coated; non-labeled IERM peptide at 12.8-40000 ng/ml against a constant concentration of biotin-labeled CTD peptides; streptavidin-HRP; details: both partners purified

B1: biotin-labeled IERM diheptad peptide (peptide)
peptide: Biotin-KK[Ahx]TIERMGSGVERMGPA
notes: two lysine residues inserted between biotin and the C6 spacer: [Biotin]-KK-C6-peptide; diheptad of the IERM repeats of hnRNP M; also called IERM peptide; source: synthetic peptide
B1 was tested, and the EC50 [1] was 83 nM.

B2: biotin-labeled Ser2-phosphorylated CTD diheptad peptide (peptide)
peptide: KKSYSPTSPSYSPTSPS
modifications: phosphoserine at Ser2 of each heptad (SYpSPTSPSYpSPTSPS); biotin on the N-terminus; C6 spacer (aminocaproic acid) between KK and the peptide
notes: two lysine residues inserted between biotin and the C6 spacer: [Biotin]-KK-C6-peptide; diheptad of the CTD heptad repeats of the RNAP II largest subunit, printed as SYpSPTSPSYpSPTSPS; also called pSer2 CTD; source: synthetic peptide
Binder B2 has an EC50 [1] of 135 nM.

B3: biotin-labeled unphosphorylated CTD diheptad peptide (peptide)
peptide: KKSYSPTSPSYSPTSPS
modifications: biotin on the N-terminus; C6 spacer (aminocaproic acid) between KK and the peptide
notes: two lysine residues inserted between biotin and the C6 spacer: [Biotin]-KK-C6-peptide; diheptad of the CTD heptad repeats (YSPTSPS) of the RNAP II largest subunit; also called CTD peptide; unphosphorylated CTD peptide; source: synthetic peptide
B3 showed an EC50 [1] of 1070 nM.

B4: non-labeled IERM diheptad peptide (peptide)
peptide: TIERMGSGVERMGPA
notes: diheptad of the IERM repeats of hnRNP M, without biotin label; also called nonlabeled IERM peptide; IERM peptide; source: synthetic peptide
With B4 the IC50 [2] was 106 nM and the binding result [3] was “binds”.

B5: biotin-labeled Ser5-phosphorylated CTD diheptad peptide (peptide)
peptide: KKSYSPTSPSYSPTSPS
modifications: phosphoserine at Ser5 of each heptad (SYSPTpSPSYSPTpSPS); biotin on the N-terminus; C6 spacer (aminocaproic acid) between KK and the peptide
notes: two lysine residues inserted between biotin and the C6 spacer: [Biotin]-KK-C6-peptide; diheptad of the CTD heptad repeats of the RNAP II largest subunit, printed as SYSPTpSPSYSPTpSPS; also called pSer5 CTD; source: synthetic peptide
Binder B5 has an EC50 [1] of 101 nM.

Source: article doi:10.1101/671156, “Oncoprotein CoAA repeats interact with RNA polymerase II CTD repeats” (bioRxiv, 2019)
